Six molecules from patent publication US20250074972A1, “ANTIBODIES AND METHODS FOR GENERATING THE SAME” (priority 2021, published 2025) can be followed below.

In assay [1] the test system is A. fumigatus AF293/FGSC1100 hyphae. Briefly: Whole cell binding ELISA, A. fumigatus hyphae. The conditions noted are these: starting concentration 100 μg/ml scAb. Also on record: species or system Aspergillus fumigatus. The protocol:
C. albicans Utr2 shares certain degree of sequence similarity with S. cerevisiae Utr2, S. cerevisiae Crh1 and an Aspergillus fumigatus allergen Aspf9, with highly conserved putative glycosyl hydrolase domains (Alberti-Segui et al., 2004). The cross-reactivity of selected Utr2 scAbs to A. fumigatus was tested by performing a whole cell binding ELISA using C. albicans SC5314 and A. fumigatus AF293/FGSC1100 strains. To induce hyphal formation, wells of a MaxiSorp flat-bottom 96 well plate was coated with approximately 10^6 overnight grown cells diluted in DMEM or RPMI-1640 modified medium containing 10% heat-inactivated foetal calf serum (FCS) and incubated at 37° C. for 2-20 h. Cells were washed three times in PBS+0.05% Tween, blocked with 1.5% bovine serum albumin (BSA), and incubated at room temperature for 1 h. Cells were washed as before and a starting concentration of 100 μg/ml scAb in 1% blocking buffer was added in duplicate in doubling dilutions and incubated at room temperature for 1.5 h. After washing, cells were incubated with anti-human C kappa peroxidase antibody as described previously. Following incubation for 45 min at room temperature, wells were washed and stained with tetramethylbenzidine (TMB) and read at an absorbance of 450 nm in a VersaMax microplate reader (Molecular Devices, USA).

Assay [2] has as its system C. albicans WT strain SC5314. In words: Candida albicans growth inhibition assay. Format: cell-based. The following applies: OD 405 nm. The procedure: The antifungal activity of Utr2 scAbs was assessed by measuring the growth of fungal cells in microtitre plates. A growth assay was carried out with C. albicans WT strain SC5314 and using caspofungin as a positive control. A starting concentration of 100 μg/ml was prepared for the test scAbs (B5, C8, D3, 1H3, 1B1 and 1D2) and caspofungin and these were double diluted in a 96 well microtitre plate in designated wells. The wells were inoculated using 50 μl 2×10^6 cells/ml diluted in RPMI-1640 medium and incubated for 24 h and 48 h at 37° C. Cell growth was determined by measuring optical density at 405 nm in a spectrophotometer.

Assay [3] concerns C. albicans WT and Utr2 overexpression strains. Briefly: Immunofluorescence staining of C. albicans using Utr2 scAbs. Format: cell-based, Candida albicans. The following applies: scAb 10 μg/ml (1D2 repeated at 50 μg/ml). The procedure: Overnight grown C. albicans WT and Utr2 overexpression strains were diluted and left to adhere on a poly-L-lysine glass slide for 1 h. To induce hyphal growth the cells were grown in DMEM medium containing 10% heat-inactivated foetal calf serum (FCS) and incubated at 37° C. for 2 h. Cells were washed three times in Dulbecco's phosphate-buffered saline (DPBS) and fixed with 4% paraformaldehyde at room temperature for 15 minutes. After washing, cells were blocked with 1.5% BSA and incubated for 1 h. Cells were washed as before and stained with Utr2 scAbs at 10 μg/ml for 1 h at room temperature. After washing, cells were stained with FITC-labelled anti-human kappa light chain antibody (1 μg/ml) and incubated at room temperature for 1 h. Cells were washed again and stained with 25 μg/ml of Calcofluor white (CFW) to illuminate chitin-containing structures. Mounting medium was added with a coverslip before images were taken using an UltraVIEW® Vox spinning disk confocal microscope (Perkin Elmer, Waltham, Mass, USA). Calcofluor white stain was viewed at lower brightness (×1) and FITC stain was viewed at higher brightness (×8). Calcofluor white stained the chitin rich cell wall as well as septa of both C. albicans strains.
The immunofluorescence staining was repeated for 1D2 scAb with higher concentration of scAb (50 μg/ml) and FITC-labelled anti-human kappa light chain antibody (5 μg/ml). […]

The mark [4] stands for this setting: after 24 h, top concentration of 100 μg/ml.

B1: 1C2: Utr2 antibody; SEQ ID NO: 14 (protein)
scFv: QVQLVQSGAEVKKPGASVKVSCKASGYTFTSYAMHWVRQAPGQRLEWMGWINAGNGNTKYSQKFQGRVTITRDTSASTAYMELSSLRSEDTAVYYCARGGAAAGYYMDVWGKGTLVTVSSLEGGGGSGGGGSGGGASNFMLTQPHSVSESPGKTVTISCTRSSGSIASNYVQWYQQRPGSSPTTVIYDDNQRPSGVPDRFSASIDSSSNSASLTISGLKTEDEADYYCQSYDSSIVVFGGGTKLTVLG
modifications: 1C2 Amino Acid Sequence
In the case of B1, the “cross-reactivity to A. fumigatus hyphae” value in assay [1] is given as “cross-reactive”.

B2: C8: Utr2 antibody; SEQ ID NO: 18 (protein)
scFv: EVQLVQSGAEVKKPGSSVKVSCKASGGTFSSYAISWVRQAPGQGLEWMGIINPSGGSTSYAQKFQGRVTMTRDTSTSTVYMELSSLRSEDTAVYYCARGTKGKDYYYMDVWGKGTLVTVSSLEGGGGSGGGGSGGGASDIQMTQSPSSLSASVGDRVTITCRASQSISTYLNWYQQKPGTAPNLLIYGASNLQSGVPSRFSGSGSGTDFTLTISSLQPEDFATYYCQQSYSTPLTFGGGTKVDIKR
modifications: C8 Amino Acid Sequence
Turning to B2, the growth inhibition in assay [2] (setting [4]) was 40%; in assay [2] (after 48 h incubation) it was “No further reduction”.

B3: 1B1: Utr2 antibody; SEQ ID NO: 10 (protein)
scFv: QGQLVQSGGGVVQPGRSLRLSCAASGFTFSSYAMHWVRQAPGKGLEWVAVISYDGSNKYYADSVKGRFTISRDNSKNTLYLQMNSLRAEDTAVYYCARIAHPRTRGGKEVEYFQHWGQGTLVTVSSLEGGGGSGGGGSGGGASDIVMTQTPLSSPVTLGQPASISCRSSQSLVYSDGNTYLNWFQQRPGQSPRRLIYKVSNRDSGVPDRFSGSGSGTDFTLKISRVEAEDVGVYYCMQGTHWPPSFGQGTKLEIKR
modifications: 1B1 Amino Acid Sequence
For the molecule B3, the immunofluorescence staining entry in assay [3] is “minimal staining”. The “cross-reactivity to A. fumigatus hyphae” value in assay [1] is given as “cross-reactive”.

B4: D3: Utr2 antibody; SEQ ID NO: 26 (protein)
scFv: QMQLVQSGAEVKKPGESLKISCKGSGYSFTSYWIGWVRQMPGKGLEWMGIIYPGDSDTRYSPSFQGQVTISADKSISTAYLQWSSLKASDTAMYYCARLKTGDQLPDIWGQGTMVTVSSLEGGGGSGGGGSGGGASDIVMTQTPLSLSVTPGQPASISCKSSQSLLHSDGKTYLYWYLQKPGQPPQLLIYEVSNRFSGVPDRFSGSGSGTDFTLKISRVEAEDVGVYYCMQTIQLPATFGGGTKLEIRR
modifications: D3 Amino Acid Sequence
For B4, the growth inhibition entry in assay [2] (after 48 h incubation) is given as “approximately 40%”.

B5: 1D2: Utr2 antibody; SEQ ID NO: 24 (protein)
scFv: QVQLVQSGAEVKKPGASVKVSCKASGYSFTNYDIYWVRQATGQGLEWVGFINPKTGKTGYAQKFQGRVTMSRDTSITTAYMELNSLTSEDTAVYYCASISGYWGQGTLVTVSSLEGGGGSGGGGSGGGASDIVMTQSPLSLPVTLGQPASISCRSSQSLVYSDGNTYLNWFQQRPGQSPRRLIYKVSNRDSGVPDRFSGSGSGTDFTLKISRVEAEDAGLYYCMQGSHWPPTFGQGTKVEIKR
modifications: 1D2 Amino Acid Sequence
For B5, the immunofluorescence staining entry in assay [3] is “specifically stained the hyphal tips and bud surface”. Moreover, the “cross-reactivity to A. fumigatus hyphae” value in assay [1] is given as “cross-reactive”.

B6: B5: Utr2 antibody; SEQ ID NO: 12 (protein)
scFv: QVQLVESGGGVVQPGRSLRLSCAASGFTFSSYGMHWVRQAPGKGLEWVAVISYDGSNKYYADSVKGRFTISRDNSKNTLYLQMNSLKTEDTAQYYCVRVRRSGMARGLIDYWGQGTLVTVSSLEGGGGSGGGGSGGGASSYELTQDPAVSVALGQTVRITCQGDILRSYYASWYQQKPGQAPVLVIYGKNNRPSGIPDRFSGSSSGNTASLTITGAQAEDEADYYCNSRDSSGNHKVFGGGTKVTVLG
modifications: B5 Amino Acid Sequence
In the case of B6, the values for the growth inhibition in assay [2] (setting [4]) and in assay [2] (after 48 h incubation) were 40% and “No further reduction”, respectively.
